Publication PMC3662962

Substrate: O=[N+]([O-])c1ccc(OP(=O)(O)O)cc1
Experiment: purified protein
Conditions: pH 8.0; 37.0 °C

B1: RsbU phosphatase domain (Mycobacterium tuberculosis H37Rv) (protein)
chain: AAGGDWFDALALGDRLVLVVGDVVGHGVEAAAVMSQLRTALRMQISAGYTVVEALEAVDRFHKQVPGSKSATMCVGSLDFTSGEFQYCTAGHPPPLLVTADASARYVEPTGAGPLGSGTGFPVRSEVLNIGDAILFYTDGLIERPGRPLEASTAEFADLAASIASGSGGFVLDAPARPIDRLCSDTLELLLRSTGYNDDVTLLAMQRR
- Km: 7.47 ± 1.22 mM
- Vmax: 0.07 µmol/min/mg

B2: PAS+phosphatase fusion protein (Mycobacterium tuberculosis H37Rv) (protein)
chain: MAAEMDWDKTVGAAEDVRRIFEHIPAILVGLEGPDHRFVAVNAAYRGFSPLLDTVGQPAREVYPELEGQQIYEMLDRVYQTGEPQSGSEWRLQTDYDGSGVEERYFDFVVTPRRRADGSIEGVQLIVDDVTSRVRARQAAEARVEELSERYRNVRDSATVMQQALLAASVPVVPGADIAAEYLVAAEDTAAGGDWFDALALGDRLVLVVGDVVGHGVEAAAVMSQLRTALRMQISAGYTVVEALEAVDRFHKQVPGSKSATMCVGSLDFTSGEFQYCTAGHPPPLLVTADASARYVEPTGAGPLGSGTGFPVRSEVLNIGDAILFYTDGLIERPGRPLEASTAEFADLAASIASGSGGFVLDAPARPIDRLCSDTLELLLRSTGYNDDVTLLAMQRR
- Km: 2.54 ± 0.35 mM
- Vmax: 0.07 µmol/min/mg
